Where two headings read alike, the source gives them in different places.
T1: Su(dx) WW1 domain (Drosophila, UniProt Q9Y0H4 352-398)
T1 chain (looked up): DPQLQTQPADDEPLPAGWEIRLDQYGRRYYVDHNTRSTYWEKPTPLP


Assays:
Assay in all cases: ITC
[1] = molecular target: Su(dx) WW3-4 tandem domain pair (Drosophila, UniProt Q9Y0H4 474-554)
[2] = molecular target: Su(dx) WW3-4 preloaded (saturated) with WBP1 peptide (Drosophila | , UniProt Q9Y0H4 474-554)
Su(dx) WW2 domain [3] = molecular target: T2, Su(dx) WW2 domain (Drosophila, UniProt Q9Y0H4 392-431)
Su(dx) WW4 domain = Su(dx) WW4 domain (Drosophila, UniProt Q9Y0H4 515-557)
Su(dx) WW3 domain [4] = molecular target: T3, Su(dx) WW3 domain (Drosophila, UniProt Q9Y0H4 471-514)
[5] = molecular target: Su(dx) WW3-4 (W505F) mutant tandem pair (Drosophila, UniProt Q9Y0H4 474-554, W505F)
[6] = molecular target: Su(dx) WW4 (F549W) mutant domain (Drosophila, UniProt Q9Y0H4 515-557, F549W)
Su(dx) WW1 domain = molecular target: T1, Su(dx) WW1 domain
Su(dx) WW2 domain [7] = molecular target: T2, Su(dx) WW2 domain; remark: listed apart in the source
Su(dx) WW3 domain [8] = molecular target: T3, Su(dx) WW3 domain; remark: listed apart in the source

T2 sequence (Q9Y0H4 392-431): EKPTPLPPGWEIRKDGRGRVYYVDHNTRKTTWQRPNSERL
T3 sequence (Q9Y0H4 471-514): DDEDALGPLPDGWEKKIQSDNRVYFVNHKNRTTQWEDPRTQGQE
Su(dx) WW4 (F549W) mutant domain, sequence (Q9Y0H4 515-557 F549W): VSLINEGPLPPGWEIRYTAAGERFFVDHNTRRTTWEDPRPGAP
Su(dx) WW3-4 tandem domain pair, sequence (Q9Y0H4 474-554): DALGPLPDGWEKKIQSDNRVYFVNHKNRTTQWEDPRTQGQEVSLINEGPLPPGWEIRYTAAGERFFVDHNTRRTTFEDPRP
Su(dx) WW4 domain, sequence (Q9Y0H4 515-557): as the sequence (Q9Y0H4 515-557 F549W) above, with W35F counted along it
Su(dx) WW3-4 preloaded (saturated) with WBP1 peptide, sequence (Q9Y0H4 474-554): as the sequence (Q9Y0H4 474-554) above
Su(dx) WW3-4 (W505F) mutant tandem pair, sequence (Q9Y0H4 474-554 W505F): as the sequence (Q9Y0H4 474-554) above, with W32F counted along it

| Binder | Kd [1] | Kd [2] | Kd (Su(dx) WW2 domain [3]) | Kd (Su(dx) WW4 domain) | Kd (Su(dx) WW3 domain [4]) | Kd [5] | Kd [6] | Kd (Su(dx) WW1 domain) | Kd (Su(dx) WW2 domain [7]) | Kd (Su(dx) WW3 domain [8]) |
| --- | --- | --- | --- | --- | --- | --- | --- | --- | --- | --- |
| AKQPPSYEDCIK [Notch PY motif peptide N1] | 95 µM | 42 µM | 199 µM | 45 µM | 208 µM | 97 µM | 15 µM | 214 µM |  |  |
| AKQPPSYEDC [Notch PY motif peptide N2] |  |  |  | 45 µM |  |  |  |  |  |  |
| GPPPPPYPG [WBP1 peptide] | 185 µM |  | 116 µM |  | 114 µM |  | 31 µM | 125 µM | 117 µM | 115 µM |

From PMC4244684 (The Journal of biological chemistry, 2007)
